From publication PMC7048932, “Examining sterically demanding lysine analogs for histone lysine methyltransferase catalysis” (Scientific Reports, 2020)
Blank lines part the entries; values can stand above or below the binder they belong to.

Tests used:
[1] = substrate: C[C@H](N)C(=O)N[C@@H](CCCNC(=N)N)C(=O)N[C@H](C(=O)N[C@@H](CCCCN)C(=O)N[C@@H](CCC(N)=O)C(=O)N[C@H](C(=O)N[C@@H](C)C(=O)N[C@@H](CCCNC(=N)N)C(=O)N[C@@H](CCC1CC1N)C(=O)N[C@@H](CO)C(=O)N[C@H](C(=O)NCC(=O)NCC(=O)N[C@@H](CCCCN)C(=O)N[C@@H](C)C(=O)O)[C@@H](C)O)[C@@H](C)O)[C@@H](C)O; experiment: Enzyme kinetics of G9a-catalyzed methylation (MALDI-TOF MS); type: biochemical, human; conditions: other: G9a-catalyzed methylation, MALDI-TOF MS assay; pH 8.0; 37.0 °C
Procedure: To establish the substrate efficiency of lysine- and KCP-containing histone peptides, we carried out enzyme kinetics analysis, employing the MALDI-TOF MS assays[22].
MALDI-MS methyltransferases activity experiments were performed using a Bruker instrument in the reflectron positive mode. For regular methyltransferase standard conditions experiment which carried out in 30 µL total volume, the mixture contains peptide (100 µM), SAM (200 µM), SETD8 or SETD7 (2 µM), in assay buffer 50 mM Tris at optimal pH 8.0. In case of G9a and GLP, similar conditions were used, except (500 µM) of SAM was added to the reaction mixture. Samples were incubated in an Eppendorf vial 1.5 mL using thermomixer for 1 h at 37 °C. A 5 µL aliquot of the solution was mixed with 5 µL of MeOH, after which 5 µL of this mixture was mixed with 5 µL of α-cyano-4-hydroxycinamic acid matrix (CHCA, 5 mg/mL in 125:125 µL acetonitrile/water). The spots were placed on a stainless steel MALDI plate (MS 96 target ground steel BC of Bruker, Germany). The mass corresponding to one monomethylation observed as +14 Da, dimethylation observed as +28 Da and trimethylation observed as +42 Da. The enzymatic activity was determined by taking the peak areas of each methylation state, including all isotopes and adducts, and was annotated using FlexAnalysis software (Bruker Daltonics, Germany). […] Methylated peptide substrates were repeated five times and the unmethylated substrates were triplicated.

SETD7 (human) = target: T1, SETD7 (human) (UniProt Q8WTS6)
T1 sequence: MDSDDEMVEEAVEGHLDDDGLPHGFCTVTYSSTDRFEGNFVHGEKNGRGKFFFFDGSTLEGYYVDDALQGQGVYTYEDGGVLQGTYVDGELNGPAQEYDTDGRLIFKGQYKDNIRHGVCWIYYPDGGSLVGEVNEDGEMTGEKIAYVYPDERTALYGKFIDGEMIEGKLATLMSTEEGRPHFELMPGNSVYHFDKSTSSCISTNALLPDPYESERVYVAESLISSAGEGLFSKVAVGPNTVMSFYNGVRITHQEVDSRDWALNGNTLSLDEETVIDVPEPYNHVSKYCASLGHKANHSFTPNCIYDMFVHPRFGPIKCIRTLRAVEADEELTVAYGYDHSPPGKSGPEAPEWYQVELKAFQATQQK

G9a (human) = G9a (human) (UniProt Q96KQ7)
GLP (human) = GLP (human) (UniProt Q9H9B1)
GLP (human), sequence (Q9H9B1 whole entry): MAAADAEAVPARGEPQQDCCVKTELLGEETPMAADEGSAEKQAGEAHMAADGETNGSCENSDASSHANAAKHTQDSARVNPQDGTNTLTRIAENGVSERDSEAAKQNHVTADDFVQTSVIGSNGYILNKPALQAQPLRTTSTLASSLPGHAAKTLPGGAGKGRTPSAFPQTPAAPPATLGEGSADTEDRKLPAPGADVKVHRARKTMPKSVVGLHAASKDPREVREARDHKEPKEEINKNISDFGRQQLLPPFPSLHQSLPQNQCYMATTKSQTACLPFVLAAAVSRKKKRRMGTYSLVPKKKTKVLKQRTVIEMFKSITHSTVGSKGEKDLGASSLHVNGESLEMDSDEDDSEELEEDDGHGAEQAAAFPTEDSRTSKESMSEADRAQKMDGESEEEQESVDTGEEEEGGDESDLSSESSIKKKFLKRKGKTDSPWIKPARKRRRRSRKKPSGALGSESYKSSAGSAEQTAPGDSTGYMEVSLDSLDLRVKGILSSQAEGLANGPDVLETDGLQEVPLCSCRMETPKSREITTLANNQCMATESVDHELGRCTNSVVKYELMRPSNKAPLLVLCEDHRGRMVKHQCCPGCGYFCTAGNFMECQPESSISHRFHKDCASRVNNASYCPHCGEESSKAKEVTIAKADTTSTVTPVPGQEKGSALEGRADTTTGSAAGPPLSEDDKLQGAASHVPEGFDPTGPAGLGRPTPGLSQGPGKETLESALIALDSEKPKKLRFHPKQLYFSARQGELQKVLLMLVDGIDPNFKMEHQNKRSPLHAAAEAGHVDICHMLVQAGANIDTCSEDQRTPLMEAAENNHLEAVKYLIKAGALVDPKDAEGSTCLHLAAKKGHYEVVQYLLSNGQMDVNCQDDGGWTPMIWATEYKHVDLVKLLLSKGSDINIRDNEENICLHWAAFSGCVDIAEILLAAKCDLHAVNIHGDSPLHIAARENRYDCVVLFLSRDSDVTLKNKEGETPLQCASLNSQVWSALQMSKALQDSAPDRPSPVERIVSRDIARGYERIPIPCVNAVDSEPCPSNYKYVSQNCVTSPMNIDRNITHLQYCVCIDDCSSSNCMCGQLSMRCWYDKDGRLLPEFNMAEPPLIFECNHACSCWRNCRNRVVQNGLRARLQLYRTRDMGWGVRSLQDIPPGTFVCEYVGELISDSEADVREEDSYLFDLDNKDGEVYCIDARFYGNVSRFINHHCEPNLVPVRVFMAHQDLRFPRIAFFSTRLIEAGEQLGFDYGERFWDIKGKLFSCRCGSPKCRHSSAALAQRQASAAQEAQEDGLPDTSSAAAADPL

B1: G9a (Homo sapiens) (protein)
chain: MAAAAGAAAAAAAEGEAPAEMGALLLEKETRGATERVHGSLGDTPRSEETLPKATPDSLEPAGPSSPASVTVTVGDEGADTPVGATPLIGDESENLEGDGDLRGGRILLGHATKSFPSSPSKGGSCPSRAKMSMTGAGKSPPSVQSLAMRLLSMPGAQGAAAAGSEPPPATTSPEGQPKVHRARKTMSKPGNGQPPVPEKRPPEIQHFRMSDDVHSLGKVTSDLAKRRKLNSGGGLSEELGSARRSGEVTLTKGDPGSLEEWETVVGDDFSLYYDSYSVDERVDSDSKSEVEALTEQLSEEEEEEEEEEEEEEEEEEEEEEEEDEESGNQSDRSGSSGRRKAKKKWRKDSPWVKPSRKRRKREPPRAKEPRGVNGVGSSGPSEYMEVPLGSLELPSEGTLSPNHAGVSNDTSSLETERGFEELPLCSCRMEAPKIDRISERAGHKCMATESVDGELSGCNAAILKRETMRPSSRVALMVLCETHRARMVKHHCCPGCGYFCTAGTFLECHPDFRVAHRFHKACVSQLNGMVFCPHCGEDASEAQEVTIPRGDGVTPPAGTAAPAPPPLSQDVPGRADTSQPSARMRGHGEPRRPPCDPLADTIDSSGPSLTLPNGGCLSAVGLPLGPGREALEKALVIQESERRKKLRFHPRQLYLSVKQGELQKVILMLLDNLDPNFQSDQQSKRTPLHAAAQKGSVEICHVLLQAGANINAVDKQQRTPLMEAVVNNHLEVARYMVQRGGCVYSKEEDGSTCLHHAAKIGNLEMVSLLLSTGQVDVNAQDSGGWTPIIWAAEHKHIEVIRMLLTRGADVTLTDNEENICLHWASFTGSAAIAEVLLNARCDLHAVNYHGDTPLHIAARESYHDCVLLFLSRGANPELRNKEGDTAWDLTPERSDVWFALQLNRKLRLGVGNRAIRTEKIICRDVARGYENVPIPCVNGVDGEPCPEDYKYISENCETSTMNIDRNITHLQHCTCVDDCSSSNCLCGQLSIRCWYDKDGRLLQEFNKIEPPLIFECNQACSCWRNCKNRVVQSGIKVRLQLYRTAKMGWGVRALQTIPQGTFICEYVGELISDAEADVREDDSYLFDLDNKDGEVYCIDARYYGNISRFINHLCDPNIIPVRVFMLHQDLRFPRIAFFSSRDIRTGEELGFDYGDRFWDIKSKYFTCQCGSEKCKHSAEAIALEQSRLARLDPHPELLPELGSLPPVNT
notes: His6 (N); made in house; host or cells: E. coli BL21 (DE3)pLysS-rosetta
- Km [1]: 22.6 ± 5.0 µM
- kcat [1]: 0.0463 ± 0.0005 s⁻¹
- kcat/Km [1]: 2070 M⁻¹ s⁻¹

- IC50 of inhibition of SETD7 (100 nM) methylation of a 21-mer H3 peptide (residues 1–21, 5 µM) with SAM (20 µM), MALDI-TOF MS (SETD7 (human)): > 100 µM
B2: H3K4 analog histone peptide with tyrosine (Y) at position 4 (peptide)
peptide: ARTYQTARKSTGGKA

- IC50 of inhibition of G9a (100 nM) methylation of a 21-mer H3 peptide (residues 1–21, 5 µM) with SAM (20 µM), MALDI-TOF MS (G9a (human)): > 100 µM
- IC50 of inhibition of GLP (100 nM) methylation of a 21-mer H3 peptide (residues 1–21, 5 µM) with SAM (20 µM), MALDI-TOF MS (GLP (human)): > 100 µM
B3: H3Y9 histone peptide (peptide)
peptide: ARTKQTARYSTGGKA
